# From US20140038292
# System: T1, Tol1 transposase (851 aa) (Oryzias latipes)
# T1 sequence: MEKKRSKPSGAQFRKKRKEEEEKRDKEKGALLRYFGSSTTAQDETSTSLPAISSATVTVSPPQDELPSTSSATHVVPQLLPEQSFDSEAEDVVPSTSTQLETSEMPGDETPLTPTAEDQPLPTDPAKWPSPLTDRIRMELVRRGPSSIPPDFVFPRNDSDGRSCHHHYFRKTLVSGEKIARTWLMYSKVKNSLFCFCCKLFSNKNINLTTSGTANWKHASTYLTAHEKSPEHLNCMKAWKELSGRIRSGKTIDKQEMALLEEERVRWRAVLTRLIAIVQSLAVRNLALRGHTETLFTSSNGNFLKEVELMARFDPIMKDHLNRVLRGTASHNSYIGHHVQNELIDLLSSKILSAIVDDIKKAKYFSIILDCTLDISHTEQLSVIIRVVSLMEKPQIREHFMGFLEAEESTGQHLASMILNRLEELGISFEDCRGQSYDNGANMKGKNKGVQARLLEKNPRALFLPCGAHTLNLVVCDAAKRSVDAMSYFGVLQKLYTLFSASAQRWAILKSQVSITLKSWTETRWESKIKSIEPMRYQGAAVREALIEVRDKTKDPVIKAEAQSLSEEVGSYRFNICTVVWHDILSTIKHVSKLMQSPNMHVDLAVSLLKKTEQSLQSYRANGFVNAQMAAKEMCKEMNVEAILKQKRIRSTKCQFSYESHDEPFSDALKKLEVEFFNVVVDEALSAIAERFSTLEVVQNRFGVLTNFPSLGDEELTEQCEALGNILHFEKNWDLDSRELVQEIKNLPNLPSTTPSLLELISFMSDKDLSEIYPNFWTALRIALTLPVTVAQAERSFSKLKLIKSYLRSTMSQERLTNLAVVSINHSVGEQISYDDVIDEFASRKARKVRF
# Experiment: cell_activity
# Conditions: HeLa, donor 200 ng, helper 800 ng; 8 bp TSD at insertions
substance,measurement,value
"Tol1-tyr element (1855 bp), donor plasmid",activity (net G418-resistant colonies),3660
